Assay results published in paper PMC7213983.
Each block holds one substance with its values, some of them ahead of it.

Tests used:
chicken MRP126 (chicken) = chicken MRP126 (chicken) (UniProt P28318); experiment: SEC-MALS; Superose 12 10/300 GL; samples at 0.5-2 mg/ml in tris buffer (25 mM tris, 100 mM NaCl, pH 7.4) + 0.5 mM CaCl2; flow 0.2 ml/min
human S100A9 (human) = human S100A9 (human) (UniProt P06702); experiment: as above
[1] = biological target: human S100A9 M63F (human) (UniProt P06702); experiment: as above
human S100A12 (human) = human S100A12 (human) (UniProt P80511); experiment: as above
[2] = biological target: opossum Toll-like receptor 4 (opossum)

Substance: chicken MRP126 (from UniProt P28318 1-119) (natural protein)
stoichiometry N (chicken MRP126 (chicken)): 2

Substance: human S100A12 (from UniProt P80511 1-92) (natural protein)
stoichiometry N (human S100A12 (human)): 2

Substance: opossum S100A9 (natural protein)
NF-κB luciferase reporter in HEK293T cells transfected with opossum TLR4, MD-2 and CD14; activity against that of human A9 (fold of human A9 activity) [2]: 0.5

Second part, the substance after the results:

stoichiometry N (human S100A9 (human)): 2
Substance: human S100A9 (from UniProt P06702 1-114) (natural protein)

stoichiometry N [1]: 2
Substance: human S100A9 M63F (from UniProt P06702 1-114) (natural protein)
